Assay results taken from patent US20230310631A1, “THERAPEUTIC USE OF GLUCAGON DERIVATIVE OR CONJUGATE THEREOF FOR LIVER DISEASE” (HANMI PHARM. CO., LTD., priority 2020, published 2023).
Bridge positions count the residues as written; N and C are the ends. Square brackets hold non-standard residues; d marks the D form. Ends that are not written are not given here. Aib = CC(C)(N)C(=O)O

B1: glucagon derivative of SEQ ID NO: 25 (peptide)
peptide: Y[Aib]QGTFTSDYSKYLDEKRAKCFVQWLMNT
modifications: lactam 16-20
B2: glucagon derivative of SEQ ID NO: 34 (peptide)
peptide: W[Aib]QGTFTSDYSKYCDERRAKEFVQWLMNT
modifications: lactam 16-20
B3: glucagon derivative of SEQ ID NO: 37 (peptide)
peptide: Y[Aib]QGTFTSDYSKYLDERRAKEFVQWLMNTC
modifications: lactam 16-20
B4: glucagon derivative of SEQ ID NO: 20 (peptide)
peptide: Y[Aib]QGTFTSDYSKYLDECRAKEFVQWLMNT
modifications: lactam 16-20
B5: glucagon derivative of SEQ ID NO: 43 (peptide)
peptide: Y[Aib]QGTFTSDCSKYLDSRRAQDFVQWLMNT
B6: glucagon derivative of SEQ ID NO: 10 (peptide)
peptide: Y[Aib]QGTFTSDYSKYLDSCDADDFVVWLINT
B7: glucagon derivative of SEQ ID NO: 4 (peptide)
peptide: HSQGTFTSDYSKYLDSCDAQDFVQWLMNT
B8: glucagon derivative of SEQ ID NO: 2 (peptide)
peptide: HSQGTFTSDYSKYLDCDRAQDFVQWLMNT
B9: glucagon derivative of SEQ ID NO: 14 (peptide)
peptide: Y[Aib]QGTFTSDYSKYLDCKRAKEFVQWLMNT
modifications: not fully specified (bridges)
B10: glucagon derivative of SEQ ID NO: 13 (peptide)
peptide: Y[Aib]QGTFTSDYSCYLDSRRAQDFVQWLMNT
B11: glucagon derivative of SEQ ID NO: 38 (peptide)
peptide: Y[Aib]QGTFCSDYSKYLDERRAKEFVQWLMNT
modifications: lactam 16-20
B12: glucagon derivative of SEQ ID NO: 42 (peptide)
peptide: Y[Aib]QGTFCSDYSKYLDSRRAQDFVQWLMNT
B13: glucagon derivative of SEQ ID NO: 22 (peptide)
peptide: Y[Aib]QGTFTSDYSKYLDEKRCKEFVQWLMNT
modifications: lactam 16-20
B14: glucagon derivative of SEQ ID NO: 45 (peptide)
peptide: Y[Aib]QGTFTSDYSCYLDEKRAKEFVQWLMNT
B15: glucagon derivative of SEQ ID NO: 28 (peptide)
peptide: W[Aib]QGTFVSDYSKYLDECRAKDFVQWLMNT
modifications: lactam 16-20
B16: glucagon derivative of SEQ ID NO: 18 (peptide)
peptide: Y[Aib]QGTFTSDYSKYLDSRRACDFRLWLMNT
B17: glucagon derivative of SEQ ID NO: 30 (peptide)
peptide: W[Aib]QGTFTSDYSKCLDERRAKDFVQWLMNT
modifications: lactam 16-20
B18: glucagon derivative of SEQ ID NO: 17 (peptide)
peptide: Y[Aib]QGTFTSDYSKYLDCVRAQDFVQWLMRT
B19: glucagon derivative of SEQ ID NO: 44 (peptide)
peptide: YXQGTFTSDYSKYLDSRRAQDFVQWLMNTC
modifications: X at position 2 = aminoisobutyric acid (Aib)
B20: glucagon derivative of SEQ ID NO: 41 (peptide)
peptide: Y[Aib]QGTFCSDYSKYLDERRAKDFVQWLMNT
modifications: lactam 16-20
B21: glucagon derivative of SEQ ID NO: 23 (peptide)
peptide: Y[Aib]QGTFTSDYSKYCDEKRAKEFVQWLMNT
modifications: lactam 16-20
B22: glucagon derivative of SEQ ID NO: 27 (peptide)
peptide: Y[Aib]QGTFVSDYSKYLDECRAKDFVQWLMNT
modifications: lactam 16-20
B23: glucagon derivative of SEQ ID NO: 29 (peptide)
peptide: Y[Aib]QGTFTSDYSKCLDERRAKDFVQWLMNT
modifications: lactam 16-20
B24: glucagon derivative of SEQ ID NO: 39 (peptide)
peptide: Y[Aib]QGTFVSDCSKYLDERRAKDFVQWLMNT
modifications: lactam 16-20
B25: glucagon derivative of SEQ ID NO: 24 (peptide)
peptide: Y[Aib]QGTFTSDYSKCLDEKRAKEFVQWLMNT
modifications: lactam 16-20
B26: glucagon derivative of SEQ ID NO: 12 (peptide)
peptide: Y[Aib]QGTFTSDYSKYLDEKRAKEFVQWLMNTC
modifications: lactam 16-20
B27: glucagon derivative of SEQ ID NO: 15 (peptide)
peptide: Y[Aib]QGTFTSDYSKYLCEKRAQDFVVWLMNT
B28: glucagon derivative of SEQ ID NO: 5 (peptide)
peptide: HSQGTFTSDYSKYLDSCEAQDFVQWLMNT
B29: glucagon derivative of SEQ ID NO: 16 (peptide)
peptide: Y[Aib]QGTFTSDYSKYLDCRRAQVFVQWLMRT
B30: glucagon derivative of SEQ ID NO: 36 (peptide)
peptide: Y[Aib]QGTFTSDCSKYLDERRAKEFVQWLMNT
modifications: lactam 16-20
B31: glucagon derivative of SEQ ID NO: 8 (peptide)
peptide: Y[Aib]QGTFTSDYSKYLDSCDAQDFVQWLINT
B32: glucagon derivative of SEQ ID NO: 3 (peptide)
peptide: HSQGTFTSDYSKYLDCERAQDFVQWLMNT
B33: glucagon derivative of SEQ ID NO: 31 (peptide)
peptide: Y[Aib]QGTFTSDYSKYLDCKRAKEFVQWLMNT
modifications: lactam 17-21
B34: glucagon derivative of SEQ ID NO: 32 (peptide)
peptide: SQGTFTSDYSKYLDECRAKEFVQWLMNT
modifications: lactam 15-19
B35: glucagon derivative of SEQ ID NO: 7 (peptide)
peptide: YSQGTFTSDYSKYLDSCEADDFVQWLMNT
B36: glucagon derivative of SEQ ID NO: 40 (peptide)
peptide: Y[Aib]QGTFVSDYSKYLDERRAKDFVQWLMNTC
modifications: lactam 16-20
B37: glucagon derivative of SEQ ID NO: 19 (peptide)
peptide: Y[Aib]QGTFTSDYSKYLCEKRAKEFVQWLMNT
modifications: lactam 16-20
B38: glucagon derivative of SEQ ID NO: 26 (peptide)
peptide: W[Aib]QGTFTSDYSKYLDECRAKDFVQWLMNT
modifications: lactam 16-20
B39: glucagon derivative of SEQ ID NO: 6 (peptide)
peptide: HSQGTFTSDYSKYLDSCEADDFVQWLMNT
B40: glucagon derivative of SEQ ID NO: 33 (peptide)
peptide: YXQGTFTSDYSKYLDSRRAQDFVQWLMNT
modifications: X at position 2 = aminoisobutyric acid (Aib)
B41: glucagon derivative of SEQ ID NO: 21 (peptide)
peptide: Y[Aib]QGTFTSDYSKYLDEKCAKEFVQWLMNT
modifications: lactam 16-20
B42: glucagon derivative of SEQ ID NO: 11 (peptide)
peptide: Y[Aib]QGTFTSDYSKYLDEKCAKEFVQWLMNT
modifications: not fully specified (bridges)
B43: glucagon derivative of SEQ ID NO: 35 (peptide)
peptide: Y[Aib]QGTFTSDYSKYCDERRAKEFVQWLMNT
modifications: lactam 16-20
B44: glucagon derivative of SEQ ID NO: 9 (peptide)
peptide: Y[Aib]QGTFTSDYSKYLDSCDAQDFVVWLINT

Target: human glucagon receptor (human, UniProt P47871 26-477)
Experiment: cell-based or functional assay

human glucagon receptor, sequence (P47871 26-477): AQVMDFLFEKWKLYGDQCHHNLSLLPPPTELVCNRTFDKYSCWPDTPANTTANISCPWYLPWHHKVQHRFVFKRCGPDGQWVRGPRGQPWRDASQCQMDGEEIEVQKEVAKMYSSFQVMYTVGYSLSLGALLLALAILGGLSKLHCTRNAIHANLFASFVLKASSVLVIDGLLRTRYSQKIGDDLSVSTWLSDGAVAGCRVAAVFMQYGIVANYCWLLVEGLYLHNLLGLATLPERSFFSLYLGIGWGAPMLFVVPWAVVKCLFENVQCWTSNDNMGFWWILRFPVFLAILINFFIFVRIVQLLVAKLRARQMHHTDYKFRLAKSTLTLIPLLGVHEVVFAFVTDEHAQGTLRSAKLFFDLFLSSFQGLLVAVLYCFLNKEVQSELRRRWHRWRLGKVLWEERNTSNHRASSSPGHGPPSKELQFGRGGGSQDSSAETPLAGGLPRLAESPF

In vitro Activity (relative activity to SEQ ID NO: 1, %); cAMP assay, from EC50 | Binder
46.9% | B1
0.2% | B2
226% | B3
300% | B4
1.6% | B5
< 0.1% | B6
< 0.1% | B7
0.6% | B8
18.1% | B9
5.2% | B10
167% | B11
37.9% | B12
148% | B13
5.2% | B14
< 0.1% | B15
< 0.1% | B16
0.3% | B17
23.2% | B18
75.4% | B19
45.2% | B20
76.8% | B21
93.6% | B22

In vitro Activity (relative activity to SEQ ID NO: 1, %); cAMP assay, from EC50 | Binder
61.3% | B23
3.7% | B24
58% | B25
56.3% | B26
1.1% | B27
0.3% | B28
4.2% | B29
9.9% | B30
< 0.1% | B31
6.1% | B32
6.3% | B33
0.7% | B34
< 0.1% | B35
40.8% | B36
12.1% | B37
1% | B38
< 0.1% | B39
108% | B40
57.8% | B41
4.6% | B42
17.7% | B43
< 0.1% | B44
